Target: T1, 弓形虫重组SAG1蛋白(表面膜抗原1) (Toxoplasma gondii, UniProt P13664 48-306, limits assumed)
T1 construct: The vector tag (pET28a, Ni-NTA purified) is not described; In the BLI programme the loading step is called biotinylated antigen, but the sensor is APS; also called SAG1-m; SAG1重组抗原
T1 sequence (looked up): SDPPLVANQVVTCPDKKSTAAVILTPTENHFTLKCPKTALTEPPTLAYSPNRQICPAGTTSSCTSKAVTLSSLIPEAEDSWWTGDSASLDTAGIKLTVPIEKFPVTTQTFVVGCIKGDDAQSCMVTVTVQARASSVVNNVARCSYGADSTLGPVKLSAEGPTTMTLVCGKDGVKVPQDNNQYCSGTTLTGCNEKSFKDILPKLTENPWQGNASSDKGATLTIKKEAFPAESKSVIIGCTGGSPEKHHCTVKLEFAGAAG
Experiment: BLI (ForteBio Octet Red), SAG1 on APS sensor, nanobody at 6.25-100 nM

B1: 1号克隆株抗SAG1纳米抗体 (VHH)
VHH: HVQLVESGGGSVQAGGSLKLSCTASGYTSNNNCMAWYRQAPGKEPEGVAGIDSEGTTRYADSVKGRFTISKDNAKNTLYLQMNSLKPEDTGMYYCGAGPDRPARCQYDVWGQGTQVTVSS
notes: Tags or fusion parts from the vectors are not described; also called SAG1-1; 一号克隆株抗SAG1纳米抗体
Kd: 1.66 nM

Source: patent publication CN108503707A (ZHEJIANG ACAD MEDICAL SCIENCES, dated 2018)
